Experimental data: article PMC8920075

B1: REGN-10987 (Imdevimab) (antibody, V domains shown)
VH: QVQLVESGGGVVQPGRSLRLSCAASGFTFSNYAMYWVRQAPGKGLEWVAVISYDGSNKYYADSVKGRFTISRDNSKNTLYLQMNSLRTEDTAVYYCASGSDYGDYLLVYWGQGTLVTVSS
VL: QSALTQPASVSGSPGQSITISCTGTSSDVGGYNYVSWYQQHPGKAPKLMIYDVSKRPSGVSNRFSGSKSGNTASLTISGLQSEDEADYYCNSLTSISTWVFGGGTKLTVL

Target: SARS CoV-1 RBD (SARS-CoV-1)
Assay: ELISA

Row | Molecule | EC50 [nM]
1 | REGN10933 (Casirivimab) (antibody) | 14
2 | B1 | > 100
